T1: Hrq1 (Saccharomyces cerevisiae, UniProt Q05549 1-1077)
T1 sequence: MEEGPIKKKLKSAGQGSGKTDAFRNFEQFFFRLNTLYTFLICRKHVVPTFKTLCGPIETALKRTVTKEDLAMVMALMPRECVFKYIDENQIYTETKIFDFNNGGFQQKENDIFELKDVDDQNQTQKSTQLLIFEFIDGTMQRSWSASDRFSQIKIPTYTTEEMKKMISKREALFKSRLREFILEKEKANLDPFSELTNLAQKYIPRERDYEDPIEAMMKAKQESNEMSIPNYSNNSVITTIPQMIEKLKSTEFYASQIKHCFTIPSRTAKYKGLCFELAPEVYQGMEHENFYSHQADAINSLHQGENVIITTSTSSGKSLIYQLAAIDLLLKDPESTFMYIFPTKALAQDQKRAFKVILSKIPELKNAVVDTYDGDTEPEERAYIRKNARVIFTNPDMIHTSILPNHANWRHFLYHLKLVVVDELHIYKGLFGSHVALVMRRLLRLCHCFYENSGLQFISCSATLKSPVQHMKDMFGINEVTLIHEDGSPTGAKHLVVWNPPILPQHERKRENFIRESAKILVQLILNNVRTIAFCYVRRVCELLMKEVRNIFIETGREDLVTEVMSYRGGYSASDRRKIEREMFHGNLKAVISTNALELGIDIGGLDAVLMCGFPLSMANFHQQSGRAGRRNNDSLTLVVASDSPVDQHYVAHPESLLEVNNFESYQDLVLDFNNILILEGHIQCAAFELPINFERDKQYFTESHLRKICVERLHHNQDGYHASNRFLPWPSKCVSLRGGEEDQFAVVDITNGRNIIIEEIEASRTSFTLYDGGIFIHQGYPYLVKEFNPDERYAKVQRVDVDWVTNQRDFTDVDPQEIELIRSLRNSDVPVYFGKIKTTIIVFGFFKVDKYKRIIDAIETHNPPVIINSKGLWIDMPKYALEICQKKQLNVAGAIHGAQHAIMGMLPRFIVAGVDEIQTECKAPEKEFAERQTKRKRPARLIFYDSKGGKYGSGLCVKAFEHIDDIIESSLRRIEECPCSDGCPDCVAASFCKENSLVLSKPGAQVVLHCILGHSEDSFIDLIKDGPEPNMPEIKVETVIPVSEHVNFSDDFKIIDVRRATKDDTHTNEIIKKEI

T2: RecQ4 (Homo sapiens, UniProt O94761 1-1208)
T2 sequence: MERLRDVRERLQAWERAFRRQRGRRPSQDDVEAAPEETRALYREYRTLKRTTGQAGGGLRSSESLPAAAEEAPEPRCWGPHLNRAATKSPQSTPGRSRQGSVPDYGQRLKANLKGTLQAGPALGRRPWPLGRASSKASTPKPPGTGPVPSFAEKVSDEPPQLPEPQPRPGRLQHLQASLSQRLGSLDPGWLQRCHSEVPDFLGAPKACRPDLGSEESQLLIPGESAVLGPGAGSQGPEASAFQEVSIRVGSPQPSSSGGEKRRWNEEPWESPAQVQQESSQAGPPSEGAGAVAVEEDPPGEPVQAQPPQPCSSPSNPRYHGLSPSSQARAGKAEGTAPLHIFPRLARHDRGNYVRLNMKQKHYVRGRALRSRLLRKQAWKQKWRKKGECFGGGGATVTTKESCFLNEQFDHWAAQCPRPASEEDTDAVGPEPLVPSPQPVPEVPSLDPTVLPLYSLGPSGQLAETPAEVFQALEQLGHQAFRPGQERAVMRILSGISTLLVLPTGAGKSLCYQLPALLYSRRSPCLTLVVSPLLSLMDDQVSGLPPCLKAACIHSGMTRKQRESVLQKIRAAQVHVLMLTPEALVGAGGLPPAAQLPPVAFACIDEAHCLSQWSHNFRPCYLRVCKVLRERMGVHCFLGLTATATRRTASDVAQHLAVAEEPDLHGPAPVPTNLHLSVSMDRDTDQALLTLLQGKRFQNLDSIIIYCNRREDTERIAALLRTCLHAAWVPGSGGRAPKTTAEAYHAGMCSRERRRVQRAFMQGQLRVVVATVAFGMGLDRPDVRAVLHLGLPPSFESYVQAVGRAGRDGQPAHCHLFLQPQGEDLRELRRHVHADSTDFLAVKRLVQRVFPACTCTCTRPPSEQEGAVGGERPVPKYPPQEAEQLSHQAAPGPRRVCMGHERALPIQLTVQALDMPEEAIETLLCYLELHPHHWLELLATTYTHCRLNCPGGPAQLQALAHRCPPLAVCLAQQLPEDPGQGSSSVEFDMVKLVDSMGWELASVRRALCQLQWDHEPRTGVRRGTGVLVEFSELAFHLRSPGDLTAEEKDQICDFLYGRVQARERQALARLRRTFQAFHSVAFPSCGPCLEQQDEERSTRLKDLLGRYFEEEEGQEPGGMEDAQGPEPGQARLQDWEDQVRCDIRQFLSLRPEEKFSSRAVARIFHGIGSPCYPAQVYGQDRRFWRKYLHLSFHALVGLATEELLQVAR


Tests used:
[1] = molecular target: T1, Hrq1; assay: EMSA
[2] = molecular target: T2, RecQ4; assay: EMSA

Binder	Kd [1]	Kd [2]
Human Tel Fork (Poly(TTAGGG) Fork) (dsDNA) DNA 1: TTAGGGTTAGGGTTAGGGTTAGGGTGTGTCACTCACATAGCGTTC DNA 2: GAACGCTATGTGAGTGACACTTAGGGTTAGGGTTAGGGTTAGGGT	15.7 ± 1.7 nM	39.7 ± 8.3 nM
G4 (structured_DNA) DNA: AAAGGGGGAGCTGGGGTAGATGGGAATGTGAGGGCAACAGGTGAGTCAACGTGTTGCCA	17.6 ± 2.2 nM	12.3 ± 2.5 nM
Poly(dT) Fork (dsDNA) DNA 1: TTTTTTTTTTTTTTTTTTTTTTTTTGTGTCACTCACATAGCGTTC DNA 2: GAACGCTATGTGAGTGACACTTTTTTTTTTTTTTTTTTTTTTTTT	6.5 ± 0.5 nM	50.9 ± 10.4 nM
D-loop (structured_DNA) DNA 1: GGGTGAACCTGCAGGTGGGCGGCTGCTCATCGTAGGTTAGTGGTAGAATTCGGCAGCGTC DNA 2: GACGCTGCCGAATTCTACCATGCCTTGCTAGGACATCTTTGCCCACCTGCAGGTTCACCC DNA 3: TAAGAGCAAGATGTTCTATAAAAGATGTCCTAGCAAGGCA	9.9 ± 0.7 nM	12.6 ± 1.8 nM
Bubble (dsDNA) DNA 1: GGTGAACCTGCAGGTGGGCGGCTGCTCATCGTAGGTTAGTTGGTAGAATTCGGCAGCGTC DNA 2: GACGCTGCCGAATTCTAGGTTGATTGGATGCTACTCGTCGGCGCCACCTGCAGGTTCACC	36.1 ± 4.9 nM	16.8 ± 2.3 nM
Yeast Tel Fork (Poly(TG1-3) Fork) (dsDNA) DNA 1: GGTGTGGTGTGGGTGTGGTGTGGGTGTGTCACTCACATAGCGTTC DNA 2: GAACGCTATGTGAGTGACACTGGGTGTGGTGTGGGTGTGGTGTGG	3.5 ± 0.4 nM	18.5 ± 3.1 nM
25-nt Random Fork (dsDNA) DNA 1: ACCGTTGTGCAACTGAGTGGACAACGTGTCACTCACATAGCGTTC DNA 2: GAACGCTATGTGAGTGACACCAACAGGTGAGTCAACGTGTTGCCA		108 ± 32.5 nM
3' tail (dsDNA) DNA 1: GAACGCTATGTGAGTGACACCAACAGGTGAGTCAACGTGTTGCCA DNA 2: GTGTCACTCACATAGCGTTC	141 ± 59.4 nM	21.8 ± 4.2 nM
5' tail (dsDNA) DNA 1: ACCGTTGTGCAACTGAGTGGACAACGTGTCACTCACATAGCGTTC DNA 2: GAACGCTATGTGAGTGACAC	154 ± 44.6 nM	102 ± 29.4 nM
TTTTTTTTTTTTTTTTTTTTTTTTTTTTTTTTTTTTTTTT (ssDNA) [Poly(dT) 40mer ssDNA]	3.45 ± 0.19 nM	2.38 ± 0.15 nM
Holliday junction (HJ) (structured_DNA) DNA 1: GACGCTGCCGAATTCTGGCTTGCTAGGACATCTTTGCCCACGTTGACCC DNA 2: TGGGTCAACGTGGGCAAAGATGTCCTAGCAATGTAATCGTCTATGACGTT DNA 3: CAACGTCATAGACGATTACATTGCTAGGACATGCTGTCTAGAGACTATCGA DNA 4: ATCGATAGTCTCTAGACAGCATGTCCTAGCAAGCCAGAATTCGGCAGCGT	79.2 ± 22.7 nM	90.1 ± 23.4 nM

Reference: paper PMC5605238
